Experimental data as given in patent publication US20170355757A1 (Regeneron, published 2017).

B1: H4H12163P (antibody, human IgG4, V domains shown)
VH: EVQLVESGGDLVQPGGSLRLSCAASGFTFSSYAMNWVRQGPGKGLEWVSAISGRGDSTYYADSVKGRLTISRDNSKNTLYLQMNSLRAEDTAVYYCVKEGEQLVYWYFDLWGRGTLVTVSS
VL: DIQMTQSPSSLSASVGDRVTITCRASQTISNFLHWYQQKPGKAPKLLIYAASSLQSGVPSRFSGSGSGTDFTLTISSLQPEDFSTYFCQQSYTTPLTFGGGTKVEIK
notes: Human IgG4 Fc with S108P hinge mutation (H4H)
B2: H4H12159P (antibody, human IgG4, V domains shown)
VH: QVQLVESGGGVVQPGRSLRLSCGASGFTFSTYGMHWVRQAPGKGLEWVAVIWDDGNNKYYADSVKGRFTISRDNSKNTLYLQMNSLRAEDTAVYYCARDSEVAPVGDYWGQGTLVTVSS
VL: DIQMTQSPSTLSASVGDRVTIICRASQSINRWLAWYQQKPGKAPKLLIYKASSLESGVPSRFSGSGSGTEFTLTISSLQPDDFAAYYCQQYNDYSYTFGQGTKLEIK
notes: as for B1
B3: H4H12167P (antibody, human IgG4, V domains shown)
VH: QVQLVESGGGLVKPGGSLRLSCAASGFTFSDSYMSWIRQAPGKGLEWISYIGSSGNTFYYADSVKGRFTISRDNANNLLYLQMTSLRAEDTAVYYCAREEGDFWSAVDSWGQGTLVTVSS
VL: DIQLTQSPSFLSASVGDRVTITCWASQGISSYLAWYQQKPGKAPKLLIHTASTLQSGVPSRFSGSGSGTEFTLTISNLQPEDFATYYCQQLNSYPFTFGPGTKVDIK
notes: as for B1
B4: H4H12175P (antibody, human IgG4, V domains shown)
VH: EVQLVESGGGVVQPGGSLRLSCAASGFTFNDYAMHWVRQAPGKGLEWVSLISGDGGNTYYADSVKGRLTISRDNSKNSLYLQMNSLRTEDTALYYCAKDKGWNFGYFDLWGRGTLVTVSS
VL: DIQMTQSPSSLSTSVGDRVTITCRASQNIDTYLNWYQQKPGKAPKLLIYDASSLQSGVPSRFSGSGSGTDFTLTITSLQPEDFATYYCQQNDNILHPLTFGGGTKVEIK
notes: as for B1

What was measured:
monkey C5-mmh = biological target: T1, monkey C5-mmh (monkey, UniProt P01031 19-1676 (human entry), limits assumed); assay: SPR, mAb captured via anti-hFc, 37C
T1 construct: Recombinant monkey C5 with a C-terminal myc-myc-hexahistidine tag
T1 chain: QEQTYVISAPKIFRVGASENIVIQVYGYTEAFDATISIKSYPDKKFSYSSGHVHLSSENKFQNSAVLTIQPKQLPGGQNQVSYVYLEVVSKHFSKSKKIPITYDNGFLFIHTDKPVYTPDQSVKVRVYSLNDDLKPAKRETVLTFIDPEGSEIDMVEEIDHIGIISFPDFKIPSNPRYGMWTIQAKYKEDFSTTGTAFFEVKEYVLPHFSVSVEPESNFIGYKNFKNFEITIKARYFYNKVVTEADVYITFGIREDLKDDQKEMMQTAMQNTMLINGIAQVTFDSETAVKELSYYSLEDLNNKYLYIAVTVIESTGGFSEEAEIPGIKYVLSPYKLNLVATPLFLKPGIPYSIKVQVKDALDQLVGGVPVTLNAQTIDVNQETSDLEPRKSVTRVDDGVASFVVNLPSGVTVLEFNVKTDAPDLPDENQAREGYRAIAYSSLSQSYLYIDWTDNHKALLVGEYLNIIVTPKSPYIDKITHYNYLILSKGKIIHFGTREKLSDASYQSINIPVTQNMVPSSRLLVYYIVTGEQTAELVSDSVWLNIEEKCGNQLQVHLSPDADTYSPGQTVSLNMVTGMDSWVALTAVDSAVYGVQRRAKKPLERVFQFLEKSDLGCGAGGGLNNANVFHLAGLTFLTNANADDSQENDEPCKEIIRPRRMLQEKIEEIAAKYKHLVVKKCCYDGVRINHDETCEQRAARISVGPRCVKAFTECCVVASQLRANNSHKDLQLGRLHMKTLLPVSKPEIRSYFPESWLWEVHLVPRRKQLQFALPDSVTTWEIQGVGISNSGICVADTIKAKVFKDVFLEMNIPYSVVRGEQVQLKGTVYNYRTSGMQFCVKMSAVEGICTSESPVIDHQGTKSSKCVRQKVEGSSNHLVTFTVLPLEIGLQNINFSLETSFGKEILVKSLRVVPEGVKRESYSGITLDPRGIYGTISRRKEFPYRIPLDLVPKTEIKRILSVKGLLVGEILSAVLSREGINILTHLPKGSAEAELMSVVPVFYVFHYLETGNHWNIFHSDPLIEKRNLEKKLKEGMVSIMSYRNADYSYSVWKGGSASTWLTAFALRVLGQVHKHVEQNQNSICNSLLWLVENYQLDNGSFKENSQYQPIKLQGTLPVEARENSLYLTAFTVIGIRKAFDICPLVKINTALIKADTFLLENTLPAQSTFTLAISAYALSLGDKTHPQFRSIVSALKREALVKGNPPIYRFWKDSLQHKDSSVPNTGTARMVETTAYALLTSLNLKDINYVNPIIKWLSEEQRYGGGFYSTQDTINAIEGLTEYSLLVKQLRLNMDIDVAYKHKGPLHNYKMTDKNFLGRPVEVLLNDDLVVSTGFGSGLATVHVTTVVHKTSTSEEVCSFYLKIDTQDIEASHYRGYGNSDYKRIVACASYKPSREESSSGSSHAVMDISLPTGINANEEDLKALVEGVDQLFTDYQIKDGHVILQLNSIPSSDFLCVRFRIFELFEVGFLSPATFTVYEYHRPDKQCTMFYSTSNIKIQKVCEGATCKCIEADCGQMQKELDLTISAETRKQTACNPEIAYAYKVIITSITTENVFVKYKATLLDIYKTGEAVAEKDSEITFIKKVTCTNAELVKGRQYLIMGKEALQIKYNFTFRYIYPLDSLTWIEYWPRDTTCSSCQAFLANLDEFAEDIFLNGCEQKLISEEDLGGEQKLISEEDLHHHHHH
Procedure, shortened: (§1)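 Anti-C5 mAbs were held by immobilised mouse anti-human Fc, and untagged or mmh-tagged C5 flowed 3 min, then buffer 8 min, in HBST pH 7.4.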

human C5 R885H-mmh [1] = biological target: T2, human C5 R885H-mmh (human, UniProt P01031 19-1676); assay: SPR, mAb captured via anti-hFc, 37C
T2 construct: also called human C5 variant R885H
Procedure, shortened: as §1

human C5 R885C-mmh [2] = biological target: T3, human C5 R885C-mmh (human, UniProt P01031 19-1676); assay: SPR, mAb captured via anti-hFc, 37C
T3 construct: also called human C5 variant R885C
Procedure, shortened: as §1

human C5 R885H-mmh [3] = biological target: T2, human C5 R885H-mmh; assay: SPR, mAb captured via anti-hFc, 25C
Procedure, shortened: as §1

human C5 R885C-mmh [4] = biological target: T3, human C5 R885C-mmh; assay: SPR, mAb captured via anti-hFc, 25C
Procedure, shortened: as §1

human C5 = biological target: T4, human C5 (human, UniProt P01031 19-1676); assay: SPR, mAb captured via anti-hFc, dissociation at pH7.4 vs pH6.0, 25C
T4 construct: Bought human C5 (EMD #204888, said elsewhere to be purified from plasma); also called hC5; complement component 5
Description: Effect of pH on the rate of dissociation of recombinant human C5 bound to purified anti-C5 monoclonal antibodies was determined using a real-time surface plasmon resonance biosensor using a Biacore T200 instrument. The Biacore sensor surface was first derivatized by amine coupling with a monoclonal mouse anti-human Fc antibody (GE, # BR-1008-39) to capture anti-C5 monoclonal antibodies expressed with human IgG4 Fc. All Biacore binding studies were performed using two running buffers PBS-T, pH7.4 (0.01M Na₂HPO₄/NaH₂PO₄, 0.15M NaCl, 0.05% v/v Tween-20, adjusted to pH7.4) and PBS-T, pH6.0 (0.01M Na₂HPO₄/NaH₂PO₄, 0.15M NaCl, 0.05% v/v Tween-20, adjusted to pH6.0). […] Binding dissociative half-lives (t %) were calculated from kd as: […]

Row | Binder | 100 nM monkey C5-mmh Bound (RU) (monkey C5-mmh) | Kd (monkey C5-mmh) [nM] | koff (monkey C5-mmh) [s⁻¹] | kon (monkey C5-mmh) [M⁻¹ s⁻¹] | t1/2 (monkey C5-mmh) [min] | 100 nM Human C5 R885H-mmh Bound (RU) (human C5 R885H-mmh [1]) | Kd (human C5 R885H-mmh [1]) [nM] | koff (human C5 R885H-mmh [1]) [s⁻¹] | kon (human C5 R885H-mmh [1]) [M⁻¹ s⁻¹] | t1/2 (human C5 R885H-mmh [1]) [min] | 100 nM Human C5 R885C-mmh Bound (RU) (human C5 R885C-mmh [2]) | Kd (human C5 R885C-mmh [2]) [nM] | koff (human C5 R885C-mmh [2]) [s⁻¹] | kon (human C5 R885C-mmh [2]) [M⁻¹ s⁻¹] | t1/2 (human C5 R885C-mmh [2]) [min] | 100 nM Human C5 R885H-mmh Bound (RU) (human C5 R885H-mmh [3]) | Kd (human C5 R885H-mmh [3]) [nM] | koff (human C5 R885H-mmh [3]) [s⁻¹] | kon (human C5 R885H-mmh [3]) [M⁻¹ s⁻¹] | t1/2 (human C5 R885H-mmh [3]) [min] | further results
1 | B1 | 129 | 3.2 | 0.00125 | 390000 | 9 | 85 | 4 | 0.0029 | 724000 | 4 | 83 | 4.97 | 0.00281 | 566000 | 4 | 214 | 0.646 | 0.000434 | 672000 | 27 | 100 nM Human C5 R885C-mmh Bound (RU) (human C5 R885C-mmh [4]): 211 RU; Kd (human C5 R885C-mmh [4]): 0.858 nM; koff (human C5 R885C-mmh [4]): 0.000432 s⁻¹; kon (human C5 R885C-mmh [4]): 504000 M⁻¹ s⁻¹; t1/2 (human C5 R885C-mmh [4]): 27 min; t1/2 Ratio pH7.4/pH6.0 (human C5): 1.2
2 | B2 | 137 | 0.133 | 5.5e-05 | 412000 | 210 | 82 | 1.49 | 0.000948 | 638000 | 12 | 68 | 1.74 | 0.000975 | 561000 | 12 | 177 | 0.25 | 0.000176 | 706000 | 66 | 100 nM Human C5 R885C-mmh Bound (RU) (human C5 R885C-mmh [4]): 168 RU; Kd (human C5 R885C-mmh [4]): 0.289 nM; koff (human C5 R885C-mmh [4]): 0.000169 s⁻¹; kon (human C5 R885C-mmh [4]): 586000 M⁻¹ s⁻¹; t1/2 (human C5 R885C-mmh [4]): 68 min; t1/2 Ratio pH7.4/pH6.0 (human C5): ≤ 0.3
3 | B3 | 146 | 0.539 | 0.000289 | 537000 | 40 | 65 | 2.91 | 0.00257 | 881000 | 5 | 64 | 3.64 | 0.00249 | 684000 | 5 | 187 | 0.433 | 0.000298 | 689000 | 39 | 100 nM Human C5 R885C-mmh Bound (RU) (human C5 R885C-mmh [4]): 163 RU; Kd (human C5 R885C-mmh [4]): 0.413 nM; koff (human C5 R885C-mmh [4]): 0.000294 s⁻¹; kon (human C5 R885C-mmh [4]): 711000 M⁻¹ s⁻¹; t1/2 (human C5 R885C-mmh [4]): 39 min; t1/2 Ratio pH7.4/pH6.0 (human C5): 0.6
4 | B4 | 74 | 15.6 | 0.00276 | 177000 | 4 | 30 | 69.4 | 0.0095 | 137000 | 1 | 4 | 159 | 0.0179 | 112000 | 1 | 207 | 10.9 | 0.00198 | 181000 | 6 | 100 nM Human C5 R885C-mmh Bound (RU) (human C5 R885C-mmh [4]): 128 RU; Kd (human C5 R885C-mmh [4]): 190 nM; koff (human C5 R885C-mmh [4]): 0.0155 s⁻¹; kon (human C5 R885C-mmh [4]): 81800 M⁻¹ s⁻¹; t1/2 (human C5 R885C-mmh [4]): 1 min; t1/2 Ratio pH7.4/pH6.0 (human C5): 0.9
